The target of this experiment is recombinant triosephosphate isomerase from Fusarium oxysporum (FoxTPI) (Fusarium oxysporum). Briefly: SEC; gel filtration on Sephacryl 100 (16/60), 50 mM Tris pH 8.0, 0.5 mL/min; calibrated with Bio-Rad gel filtration standard; single peak at 47 mL, relative MW 56 kDa.

In general, stoichiometry N refers to the number of molecules, sites or subunits per partner or assembly.

On to “recombinant triosephosphate isomerase from Fusarium oxysporum (FoxTPI) (enzyme)”, for which the stoichiometry N was determined as 2.
